From EP1987837A1 (Technische Universität Dresden Medizinische Fakultät Carl …, dated 2008)
Blank lines part the entries; values can stand above or below the molecule they belong to.

Key:
[1] = target: endogenous β2-syntrophin (rat) (UniProt P01322); test: cell-based or functional assay
[2] = target: T1, 35S-Luciferase (firefly, UniProt P08659 1-550 = luciferase, 35S-methionine labelled); test: GST pull-down, SDS-PAGE and autoradiography
T1 construct: Control protein in the pull-down assays; also called firefly luciferase; control protein

[3] = target: the molecule itself; test: co-immunoprecipitation from INS-1E cells
[4] = target: T2, 35S-ICA512601-979 (Homo sapiens (Human), UniProt Q16849 601-979, 35S-methionine labelled); test: GST pull-down, SDS-PAGE and autoradiography
T2 construct: also called cytoplasmic portion of ICA512
T2 sequence: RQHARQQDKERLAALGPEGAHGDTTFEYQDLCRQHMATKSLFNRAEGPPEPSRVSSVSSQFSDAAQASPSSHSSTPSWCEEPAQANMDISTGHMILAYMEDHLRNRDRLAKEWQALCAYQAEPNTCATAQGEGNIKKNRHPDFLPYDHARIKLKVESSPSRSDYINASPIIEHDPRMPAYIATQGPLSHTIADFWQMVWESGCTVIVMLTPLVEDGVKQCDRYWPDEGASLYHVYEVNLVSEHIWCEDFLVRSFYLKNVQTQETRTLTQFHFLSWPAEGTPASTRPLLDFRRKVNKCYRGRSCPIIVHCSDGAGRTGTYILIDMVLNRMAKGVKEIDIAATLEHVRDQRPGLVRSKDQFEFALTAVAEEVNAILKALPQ

[5] = target: T3, 35S-ICA512700-979 (Homo sapiens (Human), UniProt Q16849 700-979, 35S-methionine labelled); test: GST pull-down, SDS-PAGE and autoradiography
T3 construct: In vitro transcribed and translated from pET28a; also called PTP portion of ICA512
T3 sequence: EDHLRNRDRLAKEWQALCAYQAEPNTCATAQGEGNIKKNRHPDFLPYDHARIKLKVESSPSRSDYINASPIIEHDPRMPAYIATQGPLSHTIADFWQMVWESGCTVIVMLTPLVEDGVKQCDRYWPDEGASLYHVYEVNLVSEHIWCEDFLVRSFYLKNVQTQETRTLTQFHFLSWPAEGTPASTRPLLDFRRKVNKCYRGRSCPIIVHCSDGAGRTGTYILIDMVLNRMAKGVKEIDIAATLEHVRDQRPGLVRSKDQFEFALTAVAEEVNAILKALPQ

T1 sequence (P08659 whole entry): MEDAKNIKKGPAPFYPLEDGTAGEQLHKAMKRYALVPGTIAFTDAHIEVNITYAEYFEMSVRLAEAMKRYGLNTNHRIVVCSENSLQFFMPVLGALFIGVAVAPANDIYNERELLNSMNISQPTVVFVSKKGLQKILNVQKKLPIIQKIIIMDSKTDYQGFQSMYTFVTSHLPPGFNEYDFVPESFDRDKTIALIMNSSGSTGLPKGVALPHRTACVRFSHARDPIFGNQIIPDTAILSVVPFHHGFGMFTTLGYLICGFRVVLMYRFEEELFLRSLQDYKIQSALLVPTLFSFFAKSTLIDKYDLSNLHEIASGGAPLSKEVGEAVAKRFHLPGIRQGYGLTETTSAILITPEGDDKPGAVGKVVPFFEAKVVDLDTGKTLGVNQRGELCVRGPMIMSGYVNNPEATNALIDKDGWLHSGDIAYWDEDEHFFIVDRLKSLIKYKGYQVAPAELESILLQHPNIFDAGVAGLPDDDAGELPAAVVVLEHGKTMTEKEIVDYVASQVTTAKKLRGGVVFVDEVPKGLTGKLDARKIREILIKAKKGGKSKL

- insulin stimulation index after knockdown of β2-syntrophin, compared to control cells [1]: 34%
Molecule: ICA512-TMF (from UniProt Q63259 41-983) (receptor)

- binding result [2]: no binding
B1: GST-ICA512601-979 (other)
chain: RQHARQQDKERLAALGPEGAHGDTTFEYQDLCRQHMATKSLFNRAEGPPEPSRVSSVSSQFSDAAQASPSSHSSTPSWCEEPAQANMDISTGHMILAYMEDHLRNRDRLAKEWQALCAYQAEPNTCATAQGEGNIKKNRHPDFLPYDHARIKLKVESSPSRSDYINASPIIEHDPRMPAYIATQGPLSHTIADFWQMVWESGCTVIVMLTPLVEDGVKQCDRYWPDEGASLYHVYEVNLVSEHIWCEDFLVRSFYLKNVQTQETRTLTQFHFLSWPAEGTPASTRPLLDFRRKVNKCYRGRSCPIIVHCSDGAGRTGTYILIDMVLNRMAKGVKEIDIAATLEHVRDQRPGLVRSKDQFEFALTAVAEEVNAILKALPQ
notes: Bacterially expressed, coupled to glutathione sepharose beads (1 µg); The construct is only cited (Ort et al., 2000); not shown: glutathione S-transferase (GST) fusion partner

B2: pro-ICA512 (receptor, rat, UniProt Q63259 41-983, looked up)
chain: ISAHGCLFDRRLCSHLEVCIQDGLFGQCQAGVGQARPLLQVTSPVLQRLQGVLRQLMSQGLSWHDDLTQYVISQEMERIPRLRPPEPHPRDRSGSVPRRAGPAGELLSQGNPTGSSPAVQGLSRPPGDGNGAGVGSPLSSLQAELLPPLLEHLLMPPQPPHPSLTYEPALLQPYLFQQFGSRDGSRGSESASGVVGHLAKAEDPVLFSRSLSKAILGTHSGHSFGDLTGPSPAQLFQDSGLLYMAQELPVPGRARAPRLPEEGGSSRAEDSSEGHEEEVLGGHGEKSPPQAVQADVSLQRLAAVLAGYGVELRQLTPEQLSTLLTLLQLLPKGTGRHLGGAVNGGADVKKTIEEQMQRGDTADARPPTPLLPGHPTASSTSIKVRQVLSPGFPEPPKTSSPLGISAVLLEKKSPLGQSQPTVVGQPSARPSAEEYGYIVTDQKPLSLVAGVKLLEILAEHVHMTSGSFINISVVGPAVTFRIRHNEQNLSLADVTQQAGLVKSELEAQTGLQILQTGVGQREESAAVLPRQAHGISPMRSLLLTLVALAGVAGLLVALAVALCMRHHSKQRDKERLAALGPEGAHGDTTFEYQDLCRQHMATKSLFNRAEGQPEPSRVSSVSSQFSDAAQASPSSHSSTPSWCEEPAQANMDISTGHMILAYMEDHLRNRDRLAKEWQALCAYQAEPNTCATAQGEGNIKKNRHPDFLPYDHARIKLKVESSPSRSDYINASPIIEHDPRMPAYIATQGPLSHTIADFWQMVWESGCTVIVMLTPLVEDGVKQCDRYWPDEGSSLYHVYEVNLVSEHIWCEDFLVRSFYLKNVQTQETRTLTQFHFLSWPAEGTPASTRPLLDFRRKVNKCYRGRSCPIIVHCSDGAGRTGTYILIDMVLNRMAKGVKEIDIAATLEHVRDQRPGLVRSKDQFEFALTAVAEEVNAILKALPQ
notes: In cells expressing ICA512-GFP, one partner may be the GFP-tagged form; also called pro-form of ICA512, glycoprotein of 110 kDa
- binding result [3]: no binding

- binding result [4]: no binding
- binding result [5]: no binding
B3: GST-ICA512800-979 (other)
chain: ESGCTVIVMLTPLVEDGVKQCDRYWPDEGASLYHVYEVNLVSEHIWCEDFLVRSFYLKNVQTQETRTLTQFHFLSWPAEGTPASTRPLLDFRRKVNKCYRGRSCPIIVHCSDGAGRTGTYILIDMVLNRMAKGVKEIDIAATLEHVRDQRPGLVRSKDQFEFALTAVAEEVNAILKALPQ
notes: Bacterially expressed, on glutathione sepharose beads; not shown: glutathione S-transferase (GST) fusion partner
